The results in this text go back to article PMC5467237.

Bounds are passed on as bounds.

The assay concerns the target T1, hCHCHD2 WT expressed in CHCHD2-/- MEFs (human), Q9Y6H1.
T1 chain: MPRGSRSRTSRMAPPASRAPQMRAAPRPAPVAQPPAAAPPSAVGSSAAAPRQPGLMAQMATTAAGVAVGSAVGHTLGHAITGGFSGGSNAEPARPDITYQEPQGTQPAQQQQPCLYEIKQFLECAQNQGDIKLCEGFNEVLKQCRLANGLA
Put plainly: cross-linking; hCHCHD2-expressing MEFs treated with or without 0.5 μg/ml DSP in PBS for 20 min at RT, lysed, western blot with anti-CHCHD2; ratio of monomer signals to total signals. Conditions: remark: other sources report otherwise. (In general: A western blot detects proteins with antibodies after separation by electrophoresis.)

B1: hCHCHD2 WT expressed in CHCHD2-/- MEFs, Q9Y6H1 1-151 (natural protein)
chain: T1 chain
A word on the stoichiometry N: it is the number of molecules, sites or subunits per partner or assembly. B1: the monomer form as share of total CHCHD2 signals (% of total CHCHD2 signals) was less than 50 and the stoichiometry N worked out at 2.
